This note sets out measurements from patent publication US20240384323A1, “METHOD FOR DETERMINING PROTEASE ACTIVITY IN A BIOLOGICAL SAMPLE” (CytomX Therapeutics, Inc., priority 2021, published 2024).

The data set concerns the target T1, IQ Probe (internally quenched linear polypeptide containing the S01 substrate).
T1 chain: LSGRSDNH

B1: Recombinant human MT-SP1 (membrane type serine protease 1; R&D Systems 3946-SEB) (protein)
chain: VVGGTDADEGEWPWQVSLHALGQGHICGASLISPNWLVSAAHCYIDDRGFRYSDPTQWTAFLGLHDQSQRSAPGVQERRLKRIISHPFFNDFTFDYDIALLELEKPAEYSSMVRPICLPDASHVFPAGKAIWVTGWGHTQYGGTGALILQKGEIRVINQTTCENLLPQQITPRMMCVGFLSGGVDSCQGDSGGPLSSVEADGRIFQAGVVSWGDGCAQRNKPGVYTRLPLFRDWIKENTGV
For the protein B1, the “kcat/KM of the S01 substrate, IQ Probe relative to C225-S01” value was 4.6× and 3.5× times, respectively.
